Paper PMC3415457, “Cohesin Rings Devoid of Scc3 and Pds5 Maintain Their Stable Association with the DNA” (PLoS Genetics, 2012)

T1: GST fused to the N-terminal region (aa 1–168) of Scc1 (Saccharomyces cerevisiae (strain ATCC …, UniProt Q12158))
T1 chain: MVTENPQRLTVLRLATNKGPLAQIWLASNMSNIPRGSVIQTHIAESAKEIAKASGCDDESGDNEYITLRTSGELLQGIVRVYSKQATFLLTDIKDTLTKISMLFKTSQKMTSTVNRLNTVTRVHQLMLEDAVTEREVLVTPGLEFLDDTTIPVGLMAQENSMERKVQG

T2: GST fused to the C-terminal region (aa 338–566) of Scc1 (Saccharomyces cerevisiae (strain ATCC …, UniProt Q12158))
T2 chain: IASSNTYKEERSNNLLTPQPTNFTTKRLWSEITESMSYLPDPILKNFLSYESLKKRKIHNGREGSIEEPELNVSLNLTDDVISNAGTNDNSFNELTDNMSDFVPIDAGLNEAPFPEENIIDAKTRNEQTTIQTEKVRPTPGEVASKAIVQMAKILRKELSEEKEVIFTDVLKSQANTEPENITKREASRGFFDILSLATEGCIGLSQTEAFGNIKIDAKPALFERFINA

T3: Pds5, recombinant, His6-tagged (S. cerevisiae (budding yeast), UniProt Q04264 1-1277)
T3 construct: also called His6-tagged Pds5; source: E. coli BL21 (DE3) RIL, purified (Ni-NTA, gel filtration); not shown: His6, C-terminal, kept
T3 sequence (looked up): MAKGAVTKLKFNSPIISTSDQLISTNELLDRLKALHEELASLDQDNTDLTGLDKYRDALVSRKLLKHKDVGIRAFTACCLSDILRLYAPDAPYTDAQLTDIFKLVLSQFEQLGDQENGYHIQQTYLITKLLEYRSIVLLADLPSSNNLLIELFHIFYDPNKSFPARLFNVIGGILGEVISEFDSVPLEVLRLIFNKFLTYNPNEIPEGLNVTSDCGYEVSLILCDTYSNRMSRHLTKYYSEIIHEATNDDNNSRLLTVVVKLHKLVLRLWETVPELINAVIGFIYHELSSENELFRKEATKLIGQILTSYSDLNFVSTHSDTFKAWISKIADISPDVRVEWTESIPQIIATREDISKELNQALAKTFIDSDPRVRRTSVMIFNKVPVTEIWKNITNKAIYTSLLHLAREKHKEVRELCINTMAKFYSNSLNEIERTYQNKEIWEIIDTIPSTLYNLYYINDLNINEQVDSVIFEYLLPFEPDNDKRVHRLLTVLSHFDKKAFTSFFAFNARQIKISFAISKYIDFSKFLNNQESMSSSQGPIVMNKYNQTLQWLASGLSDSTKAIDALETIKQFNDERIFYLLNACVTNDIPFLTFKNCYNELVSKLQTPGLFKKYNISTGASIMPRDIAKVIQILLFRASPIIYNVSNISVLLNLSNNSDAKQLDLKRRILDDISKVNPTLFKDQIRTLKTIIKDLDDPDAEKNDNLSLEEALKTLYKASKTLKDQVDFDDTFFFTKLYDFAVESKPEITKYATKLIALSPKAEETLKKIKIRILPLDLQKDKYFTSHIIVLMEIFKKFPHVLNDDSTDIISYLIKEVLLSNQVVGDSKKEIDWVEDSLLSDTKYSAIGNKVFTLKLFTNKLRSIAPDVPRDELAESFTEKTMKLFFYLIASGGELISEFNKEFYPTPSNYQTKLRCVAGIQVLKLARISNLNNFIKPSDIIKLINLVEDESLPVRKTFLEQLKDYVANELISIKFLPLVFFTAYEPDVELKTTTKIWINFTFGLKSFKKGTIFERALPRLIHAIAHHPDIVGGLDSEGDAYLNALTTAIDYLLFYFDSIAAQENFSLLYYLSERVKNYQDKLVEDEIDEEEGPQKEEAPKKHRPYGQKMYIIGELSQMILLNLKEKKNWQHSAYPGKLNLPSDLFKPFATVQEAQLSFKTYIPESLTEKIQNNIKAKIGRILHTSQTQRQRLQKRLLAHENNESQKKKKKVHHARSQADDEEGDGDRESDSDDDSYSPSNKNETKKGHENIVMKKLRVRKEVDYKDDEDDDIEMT

T4: Scc3, recombinant, His6-tagged (S. cerevisiae (budding yeast), UniProt P40541 1-1150)
T4 construct: also called His6-tagged Scc3; source: E. coli BL21 (DE3) RIL, purified (Ni-NTA, gel filtration); not shown: His6, C-terminal, kept
T4 sequence (looked up): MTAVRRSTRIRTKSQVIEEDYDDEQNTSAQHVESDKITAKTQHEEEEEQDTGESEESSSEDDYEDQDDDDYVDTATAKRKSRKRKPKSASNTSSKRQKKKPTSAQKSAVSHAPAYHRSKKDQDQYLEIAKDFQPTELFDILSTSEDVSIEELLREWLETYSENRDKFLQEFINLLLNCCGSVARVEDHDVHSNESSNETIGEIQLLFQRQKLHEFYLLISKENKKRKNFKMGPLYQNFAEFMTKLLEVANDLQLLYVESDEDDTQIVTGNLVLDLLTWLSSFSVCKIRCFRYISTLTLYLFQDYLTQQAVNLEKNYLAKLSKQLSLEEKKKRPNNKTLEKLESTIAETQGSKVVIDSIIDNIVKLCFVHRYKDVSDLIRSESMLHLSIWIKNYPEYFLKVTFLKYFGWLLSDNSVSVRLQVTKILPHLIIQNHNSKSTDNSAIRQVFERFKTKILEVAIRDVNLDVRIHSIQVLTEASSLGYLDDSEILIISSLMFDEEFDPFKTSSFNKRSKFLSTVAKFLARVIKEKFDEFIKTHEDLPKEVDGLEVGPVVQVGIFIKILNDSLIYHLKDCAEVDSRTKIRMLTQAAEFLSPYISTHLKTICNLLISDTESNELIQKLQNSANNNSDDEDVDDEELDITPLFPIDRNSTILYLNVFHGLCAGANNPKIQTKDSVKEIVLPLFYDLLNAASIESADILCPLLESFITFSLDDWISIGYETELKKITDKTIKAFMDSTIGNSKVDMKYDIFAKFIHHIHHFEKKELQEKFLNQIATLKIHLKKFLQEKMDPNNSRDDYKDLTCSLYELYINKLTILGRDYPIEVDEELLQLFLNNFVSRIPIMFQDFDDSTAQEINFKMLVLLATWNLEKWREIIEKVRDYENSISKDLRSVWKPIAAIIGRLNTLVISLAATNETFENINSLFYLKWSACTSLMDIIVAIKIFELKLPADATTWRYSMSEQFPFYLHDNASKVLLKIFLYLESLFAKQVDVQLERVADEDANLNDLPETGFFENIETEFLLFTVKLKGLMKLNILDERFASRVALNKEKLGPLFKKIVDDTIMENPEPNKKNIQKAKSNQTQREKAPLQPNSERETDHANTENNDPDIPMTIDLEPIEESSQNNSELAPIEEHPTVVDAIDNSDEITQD

B1: Wpl1, recombinant, His6-tagged (natural protein, S. cerevisiae (budding yeast), UniProt Q99359 1-647, looked up)
chain: MRAYGKRGPVLRTPFRSNKGLPSSSDVEFSDDDVNSVIPDVSSTISSSIADHPIEGLLDEPRKAQDSSSSFDGANEKPSSQLDSKRNDQNVKIITSSDTSMAFMKDEKLSAFNFLDGSKASKRKRRRTYQKHDANITSSIEPDVQDEDSITMHNEFESIRKIYNDINEFILKLPRADDDILNKMLENEMKMDDSIENNSIRTSKDKKYGKFRTILINKNKENEIMGEEVDQKANTLSLNNADNSNAEKEGLTSTNHYNELKNMGDTIKYQDDIEFLLSNSKSNDNTTVPINEYFKKLLNLSLMIINDEEFFQYAKRYFKKEIIKLSFAQFRSDFPELILLQGYLLHKVSESQSDFPPSFDNFSIELSKDDGKIRTKKNKHIKKLSHLNFEDFLRKTQFKTGLYYSLSLWEMHGNLSLDIIKRISILASNKDLFSRHVKTFIPLLEKLITASEFCHMYIEQPEMFDSLISNLNNQFKDMLDDDSLIKILILLTNMEVHNYTLWKEADMIFQSSMNTILESIHPLTDAKVDNILLHLGLCLNICSRENSRLKLDGKLWYDMKTIFVKMIRDGSDTENRLVQGLFYLNFSFLIKQRKENSNLDPGELNLLLVELEAFKSETSQFNEGISNKIEIALNYLKSIYTSERITI
notes: also called Rad61; His6-tagged Wpl1; source: E. coli BL21 (DE3) RIL, purified (Ni-NTA, gel filtration); not shown: His6, C-terminal, kept

Columns and labels:
[1] = biological target: T1, GST fused to the N-terminal region (aa …); assay: GST pull-down; Pds5 present: Wpl1 bound as Pds5/Wpl1 complex (Wpl1, Scc3 and Pds5 premixed); direct Wpl1-Scc1 binding alone not reported in text
[2] = biological target: T2, GST fused to the C-terminal region (aa …); assay: GST pull-down; Scc3 present: Wpl1 bound as Scc3/Wpl1 complex (Wpl1, Scc3 and Pds5 premixed); direct Wpl1-Scc1 binding alone not reported in text
[3] = biological target: T3, Pds5, recombinant, His6-tagged; assay: co-sedimentation; 10–30% glycerol gradient; 10 mM HEPES-KOH pH 7.5, 75 mM NaCl, 0.25 mM EDTA; proteins mixed and preincubated 1 h at 4°C; 38000 rpm, 38 h, 4°C, SW40 Ti; fractions on Coomassie-stained SDS-PAGE; details: both partners purified
[4] = biological target: T4, Scc3, recombinant, His6-tagged; assay: pull-down; GST fusions of Scc1 regions on glutathione-agarose beads; His6-tagged Wpl1, Scc3 and Pds5 mixed together and pre-incubated 30 min at 4°C, then with beads 2 h at 4°C; 20 mM HEPES pH 7.5, 100 mM NaCl, 5% glycerol, 5 mM 2-mercaptoethanol; washes with 0.5% NP-40; Western blot with Penta-His antibody; details: both partners purified
[5] = biological target: B1; assay: as above; details: both partners purified
[6] = biological target: T3, Pds5, recombinant, His6-tagged; assay: as above; details: both partners purified

binding result [1]	binding result [2]	binding result [3]	binding result [4]	binding result [5]	binding result [6]	Binder
binds	binds	binds	–	–	–	B1
–	–	–	binds	binds	–	GST fused to the C-terminal region (aa 338–566) of Scc1 (domain or fragment, S. cerevisiae (budding yeast), UniProt Q12158 338-566, looked up, Scc1 of budding yeast, C-terminal region, aa 338–566; The methods' sentence on C-terminal His6 tags follows the list of constructs; whether it also holds for the GST fusions is not clear; also called C-terminal part of Scc1; Scc1 C-terminus) IASSNTYKEERSNNLLTPQPTNFTTKRLWSEITESMSYLPDPILKNFLSYESLKKRKIHNGREGSIEEPELNVSLNLTDDVISNAGTNDNSFNELTDNMSDFVPIDAGLNEAPFPEENIIDAKTRNEQTTIQTEKVRPTPGEVASKAIVQMAKILRKELSEEKEVIFTDVLKSQANTEPENITKREASRGFFDILSLATEGCIGLSQTEAFGNIKIDAKPALFERFINA
–	–	–	–	binds	binds	GST fused to the N-terminal region (aa 1–168) of Scc1 (domain or fragment, S. cerevisiae (budding yeast), UniProt Q12158 1-168, looked up, Scc1 of budding yeast, N-terminal region, aa 1–168; The methods' sentence on C-terminal His6 tags follows the list of constructs; whether it also holds for the GST fusions is not clear; also called N-terminal region of Scc1; Scc1 N-terminus) MVTENPQRLTVLRLATNKGPLAQIWLASNMSNIPRGSVIQTHIAESAKEIAKASGCDDESGDNEYITLRTSGELLQGIVRVYSKQATFLLTDIKDTLTKISMLFKTSQKMTSTVNRLNTVTRVHQLMLEDAVTEREVLVTPGLEFLDDTTIPVGLMAQENSMERKVQG
